Results reported in PMC11417369, “DNA sequence and chromatin differentiate sequence-specific transcription factor binding in the human malaria parasite Plasmodium falciparum”.

T1: AP2-HC D1 (Plasmodium falciparum, UniProt Q8IKR9 1316-1374)
T1 sequence: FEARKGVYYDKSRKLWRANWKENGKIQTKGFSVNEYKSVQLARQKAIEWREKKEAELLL

T2: AP2-LT D1 (Plasmodium falciparum, UniProt Q8IAM1 2520-2577)
T2 sequence: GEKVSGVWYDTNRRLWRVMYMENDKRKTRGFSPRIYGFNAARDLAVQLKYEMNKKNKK

B1: CACACA_negctrl_site1739 (dsDNA)
DNA 1: ACGATTCAAAGGGAATATAAAATATTATTATCTATA
DNA 2: TATAGATAATAATATTTTATATTCCCTTTGAATCGT
B2: CACACA_negctrl_site640 (dsDNA)
DNA 1: GTATATATATTTCTTTAATAATTAAATTATAAATAT
DNA 2: ATATTTATAATTTAATTATTAAAGAAATATATATAC
B3: CACACA_site6350 (dsDNA)
DNA 1: CACAAACAGACAAACACACACACACGGACATACATA
DNA 2: TATGTATGTCCGTGTGTGTGTGTTTGTCTGTTTGTG
B4: CACACA_site4184 (dsDNA)
DNA 1: TGAATAAATAAACACACACACATATATATATCTGTA
DNA 2: TACAGATATATATATGTGTGTGTGTTTATTTATTCA
B5: CACACA_negctrl_site1599 (dsDNA)
DNA 1: TTTTTAAATTATTTGAAAAAAAGAAAATTATAAACA
DNA 2: TGTTTATAATTTTCTTTTTTTCAAATAATTTAAAAA
B6: CACACA_negctrl_site1538 (dsDNA)
DNA 1: TTTTTTTTTAAGATGAAGATCAATATATAAATATAT
DNA 2: ATATATTTATATATTGATCTTCATCTTAAAAAAAAA
B7: CACACA_negctrl_site1720 (dsDNA)
DNA 1: TTCTCAAAATTAAAATAACAGATTAACGAACTAACG
DNA 2: CGTTAGTTCGTTAATCTGTTATTTTAATTTTGAGAA
B8: CACACA_negctrl_site358 (dsDNA)
DNA 1: TGTTTCCAAAAAAAAAAAAAAAAAAAAAAAAAAAAA
DNA 2: TTTTTTTTTTTTTTTTTTTTTTTTTTTTTGGAAACA
B9: CACACA_negctrl_site803 (dsDNA)
DNA 1: TTTTGTAAAAAAAAAAAAAAAGGAAAATTAAAATAA
DNA 2: TTATTTTAATTTTCCTTTTTTTTTTTTTTTACAAAA
B10: CACACA_site4689 (dsDNA)
DNA 1: ATAACCTAATAATACACACACATGAATATATATAAT
DNA 2: ATTATATATATTCATGTGTGTGTATTATTAGGTTAT
B11: CACACA_site2431 (dsDNA)
DNA 1: AACAAACACAGACACACACACACACCCAAATGATTA
DNA 2: TAATCATTTGGGTGTGTGTGTGTGTCTGTGTTTGTT
B12: CACACA_site2430 (dsDNA)
DNA 1: CAAACAAACAGACACACACACACACCCAAAAATGAT
DNA 2: ATCATTTTTGGGTGTGTGTGTGTGTCTGTTTGTTTG
B13: CACACA_site1724 (dsDNA)
DNA 1: TATATACGCAAACACACACACACATACACCCACATA
DNA 2: TATGTGGGTGTATGTGTGTGTGTGTTTGCGTATATA
B14: CACACA_negctrl_site1788 (dsDNA)
DNA 1: TTTTATAAAATATAATATAATAATATATGTATAATA
DNA 2: TATTATACATATATTATTATATTATATTTTATAAAA
B15: CACACA_negctrl_site1509 (dsDNA)
DNA 1: TTTAAAAAATGTTATATTATATAATTAAAAAAAAAA
DNA 2: TTTTTTTTTTAATTATATAATATAACATTTTTTAAA
B16: CACACA_negctrl_site1027 (dsDNA)
DNA 1: ATTAAAAAGACAAAAAAAAAATTTTTTTTTTTTTTT
DNA 2: AAAAAAAAAAAAAAATTTTTTTTTTGTCTTTTTAAT
B17: CACACA_negctrl_site1292 (dsDNA)
DNA 1: TATATTTAGAATACAATCTTAAAGTTGAAATAAAAT
DNA 2: ATTTTATTTCAACTTTAAGATTGTATTCTAAATATA
B18: CACACA_negctrl_site261 (dsDNA)
DNA 1: AACCTAAGCATTCTTCAAATTATATATGTAAAATGA
DNA 2: TCATTTTACATATATAATTTGAAGAATGCTTAGGTT

molecular target: T1, AP2-HC D1; test: gcPBM; about 25 ug protein; PBS, 1% milk, 0.2 mg/ml BSA, salmon testes DNA, 0.03% Triton X-100; details: tags: N-terminal GST (pGEX-4T-1), kept; label: surface-attached array probe

Going from B1 to B2, the binding signal falls from 9.48 ln median PBM intensity, better of two orientations to 9.37 ln median PBM intensity, better of two orientations.

First: B3
Second: B4
The binding signal of the first is lower: 10.6 ln median PBM intensity, better of two orientations for the first, 10.8 ln median PBM intensity, better of two orientations for the second.

First: B5
Second: B6
The binding signal of the first is higher: 9.26 ln median PBM intensity, better of two orientations for the first, 8.98 ln median PBM intensity, better of two orientations for the second.

First: B7
Second: B8
The binding signal of the first is higher: 9.4 ln median PBM intensity, better of two orientations for the first, 8.96 ln median PBM intensity, better of two orientations for the second.

Going from B9 to B10, the binding signal rises from 9.16 ln median PBM intensity, better of two orientations to 10.4 ln median PBM intensity, better of two orientations.

Compared with B11, B12 is higher in binding signal: 11.7 ln median PBM intensity, better of two orientations for the first, 12.2 ln median PBM intensity, better of two orientations for the second.

Going from B13 to B14, the binding signal falls from 11.9 ln median PBM intensity, better of two orientations to 9.41 ln median PBM intensity, better of two orientations.

First: B15
Second: B16
The binding signal of the first is higher: 9.35 ln median PBM intensity, better of two orientations for the first, 9.26 ln median PBM intensity, better of two orientations for the second.

Compared with B17, B18 is higher in binding signal: 9.26 ln median PBM intensity, better of two orientations for the first, 9.41 ln median PBM intensity, better of two orientations for the second.

molecular target: T2, AP2-LT D1; test: as above; details: tags: N-terminal GST (pGEX-4T-1), kept; label: surface-attached array probe

First: B1
Second: B2
The binding signal of the first is higher: 8.83 ln median PBM intensity, better of two orientations for the first, 8.59 ln median PBM intensity, better of two orientations for the second.

Going from B3 to B4, the binding signal falls from 10.2 ln median PBM intensity, better of two orientations to 10.1 ln median PBM intensity, better of two orientations.

Compared with B5, B6 is lower in binding signal: 8.26 ln median PBM intensity, better of two orientations for the first, 8.23 ln median PBM intensity, better of two orientations for the second.

Going from B7 to B8, the binding signal falls from 8.7 ln median PBM intensity, better of two orientations to 8.01 ln median PBM intensity, better of two orientations.

Compared with B9, B10 is higher in binding signal: 8.33 ln median PBM intensity, better of two orientations for the first, 9.77 ln median PBM intensity, better of two orientations for the second.

First: B11
Second: B12
The binding signal of the first is higher: 10.8 ln median PBM intensity, better of two orientations for the first, 10.6 ln median PBM intensity, better of two orientations for the second.

Compared with B13, B14 is lower in binding signal: 10.4 ln median PBM intensity, better of two orientations for the first, 8.62 ln median PBM intensity, better of two orientations for the second.

First: B15
Second: B16
The binding signal of the first is lower: 8.38 ln median PBM intensity, better of two orientations for the first, 8.44 ln median PBM intensity, better of two orientations for the second.

Going from B17 to B18, the binding signal rises from 8.65 ln median PBM intensity, better of two orientations to 8.81 ln median PBM intensity, better of two orientations.
